From patent publication US6706762
“And” between values parts separate entries of the source, which are not always exact repeats. Equal values may be shown once.

Target: GAL-C-SMRT (yeast) (UniProt P04386)
Test: cell-based or functional assay

Substance | UAS reporter expression, mammalian two-hybrid [fold] | fold lower sensitivity to ATRA than the SMRT/RARα interaction, mammalian two-hybrid
VP16-PLZF (from UniProt Q05516 1-673) | 25 | 
VP-PML-RARα (from UniProt P29590 1-552; P10276 61-462) |  | 100 fold and 200 fold
